Experimental data published in paper PMC9025568, “Identification and Characterization of Two Bibenzyl Glycosyltransferases from the Liverwort Marchantia polymorpha” (Antioxidants, 2022).

B1: MpUGT737B1 (Marchantia polymorpha) (protein)
chain: MELTNGTTRRAHVLMVCVPFPGHVAPFTQLLYHLSCHENLKVTVMGHKARNAEMIKLYEKGEFKGLDIHFETIFADPPVYPSDPKFPIRAALCADQMFVEFEPIRRRLVAEKDNVGAPTSIICDMFLWFTKDAADEMGVPWYPFFSTSQWFGYCAYIGDELARRNFHPHHSEEKDQRIDITGLEFAYVHDIPSEVLEFPEFYAKVTDRSFRATGILCNTAYELEGSAGTLMATKALVQRSGKKNLKGEEAQIIPVGPIAQIPGFGVQYSLRDQPYECLKWLNAHTEKSVLYIAFGSLGNIVPEVFHELALGLEAGGVPFLWALKLTPAQKEELLPEGFLERIQSSGMGFIESGWAPQTQILMHPAVGGFLSHCGWNSTLESLCAGVPMITWPLSADQPMNARFLVDVKKVAVTVLSGSADESVVTHDDISKAIKRLFGDEEGKQIAKNSLELKKLLASLVAEGGSTYKALRYFIQDLVMV
notes: full-length ORF (1443 bp, 480 residues) in pET32a(+), N-terminal Trx-S-His tag, E. coli BL21(DE3), purified
B2: MpUGT741A1 (Marchantia polymorpha) (protein)
chain: MGSHVERPPRALLFPVVASGHWGPFLQLILQLATKKLNFTLLADRGRCDELKAYQAKGAFATLDVEFLEVYTDPSTLSLRKDLVPAMWTNLESFISNGEFDPSRYTCMISDMFLYFCQDLADKWGIPNYFYVTCPTYFGLVLLHGEGIVDGGWIPQNPVKRKQFLDLPGLEMFTGGDMPMALTEMEPDLFHLLPRAIKGSAGLVFNSFEEFEKKPLSDLRDQLKLNAMPGKGPPTVFTIGPLLLLPGIPGALDDTKPVEKSESIAWLDKQQKSSVLFICFGSQRELPEPLITGIASGLEDTGVPFLWALRIPPQSSKIESLPEGFESRTQSRGLVLTSWVPQQEILLHPSVGGFLTHCGWNSILESMLGGVPIAAFPLYAEQRMNQRYMVNAVKTAVAIEGEHGQYEAKEIAAAIMRLLKGKEGVEARQNMQIMKEMAYAAMEEGGSSHKNLQNFLAEVQRVR
notes: full-length ORF (1392 bp, 463 residues) in pET32a(+), N-terminal Trx-S-His tag, E. coli BL21(DE3), purified

What was measured:
Assay in all cases: HPLC glucosylation assay, nonlinear fit (GraphPad Prism)
Type in all cases: biochemical, Marchantia polymorpha
[1] = substrate: Oc1ccc(CCc2cc(O)cc(O)c2)cc1; settings: UDP-glucose as donor, Tris-HCl, optimal pH (7.0-7.5), 30 °C, 12 min
Source text: (§1) HPLC glucosylation assay, nonlinear fit (GraphPad Prism) on MpUGT737B1

[2] = substrate: Oc1ccc(CCc2cccc(O)c2)cc1; settings: UDP-glucose as donor, Tris-HCl, optimal pH (7.0-7.5), 30 °C, 12 min
Source text: as §1

[3] = substrate: O=C(CCc1ccc(O)cc1)c1c(O)cc(O)cc1O; settings: UDP-glucose as donor, Tris-HCl, optimal pH (7.0-7.5), 30 °C, 12 min
Source text: as §1

[4] = substrate: Oc1ccc(CCc2cccc(O)c2)cc1; settings: UDP-glucose as donor; Tris-HCl, optimal pH (7.0), optimal temperature (25-30 °C), 12 min
Source text: HPLC glucosylation assay, nonlinear fit (GraphPad Prism) on MpUGT741A1

Protein	Km [1]	Vmax [1]	kcat [1]	kcat/Km [1]	Km [2]	Vmax [2]	kcat [2]	kcat/Km [2]	Km [3]	Vmax [3]	kcat [3]	kcat/Km [3]	Km [4]	Vmax [4]	kcat [4]	kcat/Km [4]
B1	45.6 ± 9.7 µM	0.1 µmol/min/mg	0.089 ± 0.006 s⁻¹	1960 M⁻¹ s⁻¹	39.3 ± 7.5 µM	0.0373 µmol/min/mg	0.033 ± 0.002 s⁻¹	846 M⁻¹ s⁻¹	50.2 ± 10.6 µM	0.07 µmol/min/mg	0.062 ± 0.005 s⁻¹	1240 M⁻¹ s⁻¹				
B2													89.2 ± 17.6 µM	0.15 µmol/min/mg	0.124 ± 0.012 s⁻¹	1500 M⁻¹ s⁻¹
